Assay results reported in publication PMC12093852 (Cell Communication and Signaling : CCS, 2025).

Legend:
[1] = biological target: C-X-C chemokine receptor type 4 (CXCR4), endogenous on SupT1 cells (human (endogenous in SupT1)) (UniProt P61073)
[2] = biological target: CXCR4 N-terminally fused to Nanoluciferase (UniProt P61073); experiment: FRET or BRET; NanoBRET ligand binding competition; HEK293T cells stably expressing the receptor N-terminally fused to Nanoluciferase; increasing concentrations of ligands with 10 nM CXCL12-AZ568; 2 h on ice
ACKR3-LgBiT = ACKR3-LgBiT (UniProt P25106)
CXCR4-LgBiT = CXCR4-LgBiT (UniProt P61073)
[3] = biological target: T1, CXCR4 N-terminally fused to Nanoluciferase (UniProt P61073 1-352); experiment: FRET or BRET; NanoBRET ligand binding competition; HEK293T cells stably expressing the receptor N-terminally fused to Nanoluciferase; increasing concentrations of ligands with 10 nM CXCL12-AZ568; 2 h on ice; settings: one partner purified
T1 construct: also called CXCR4 fused to a Nanoluciferase

[4] = biological target: T2, C-X-C chemokine receptor type 4 (CXCR4), endogenous on SupT1 cells (human (endogenous in SupT1), UniProt P61073 1-352); experiment: flow cytometry on cells; competition with APC-conjugated anti-human CXCR4 antibody clone 12G5 (ECL-2) on 5 x 10^4 SupT1 cells; compounds serially diluted in cold PBS; 90 min at 4 °C; MFI normalized to full stain (100%) and unstained (0%); settings: one partner purified
[5] = biological target: T2, C-X-C chemokine receptor type 4 …; experiment: flow cytometry on cells; competition with PE-conjugated anti-human CXCR4 antibody clone 1D9 (N-terminus) on 5 x 10^4 SupT1 cells; compounds serially diluted in cold PBS; 90 min at 4 °C; MFI normalized to full stain (100%) and unstained (0%); settings: one partner purified

Row | IC50 [3] | IC50 [4] | IC50 [5] | Molecule | inhibition of CXCR4-tropic HIV-1 infection of TZM-bl reporter cells [1] | IC50 [2] | β-arrestin-2 recruitment to ACKR3 (NanoBiT, HEK293T) (ACKR3-LgBiT) | β-arrestin-2 recruitment to CXCR4 (NanoBiT, HEK293T) (CXCR4-LgBiT)
1 |  |  |  | C-X-C motif chemokine ligand 12 (CXCL12), unlabelled (from UniProt P48061 22-93) | 47.9 nM | 36.7 nM | 30 nM | 30 nM
2 | 829 ± 139 nM | 1300 ± 100 nM | ~12100 nM | G protein-coupled receptor 15 ligand (GPR15LG) (ligand, UniProt Q6UWK7 25-81, looked up, also called C10orf99; AP-57) KRRPAKAWSGRRTRLCCHRVPSPNSTNLKGHHVRLCKPCKLEPEPRLWVVPGALPQV |  |  |  | 
